The values that follow come from ChEMBL document CHEMBL1145290, “Beta-glucuronidase-cleavable prodrugs of O6-benzylguanine and O6-benzyl-2'-deoxyguanosine” (J Med Chem, 2005).

Usually Vmax stands for the top rate of the reaction or transport when substrate is in excess. For orientation: Km means the concentration of substrate that gives half-maximal velocity.

Substrate in series [1]: O=C(Nc1nc(OCc2ccccc2)c2[nH]cnc2n1)OCc1ccc(O[C@@H]2OC(C(=O)O)[C@@H](O)C(O)[C@@H]2O)c([N+](=O)[O-])c1
Nature of the series: (§1) Vmax value using Escherichia coli beta-glucuronidase obtained at 370 C in MOPS buffer of pH 7.0.

Substrate in series [2]: O=C(Nc1nc(OCc2ccccc2)c2ncn([C@H]3C[C@H](O)[C@@H](CO)O3)c2n1)OCc1ccc(O[C@@H]2O[C@H](C(=O)O)[C@@H](O)[C@H](O)[C@H]2O)c([N+](=O)[O-])c1
The description is as §1.

Substrate in series [3]: O=C(Nc1nc(OCc2ccccc2)c2[nH]cnc2n1)OCc1ccc(O[C@@H]2OC(C(=O)O)[C@@H](O)C(O)[C@@H]2O)c([N+](=O)[O-])c1
Nature of the series: (§2) KM value using Escherichia coli beta-glucuronidase obtained at 370 C in MOPS buffer of pH 7.0.

Substrate in series [4]: O=C(Nc1nc(OCc2ccccc2)c2ncn([C@H]3C[C@H](O)[C@@H](CO)O3)c2n1)OCc1ccc(O[C@@H]2O[C@H](C(=O)O)[C@@H](O)[C@H](O)[C@H]2O)c([N+](=O)[O-])c1
Described as §2.

Substrate in series [5]: O=C(Nc1nc(OCc2ccccc2)c2[nH]cnc2n1)OCc1ccc(O[C@@H]2OC(C(=O)O)[C@@H](O)C(O)[C@@H]2O)c([N+](=O)[O-])c1
Nature of the series: (§3) Vmax value using bovine liver beta-glucuronidase obtained at 370 C in MOPS buffer of pH 7.0. The note with it: Bos taurus.

Substrate in series [6]: O=C(Nc1nc(OCc2ccccc2)c2ncn([C@H]3C[C@H](O)[C@@H](CO)O3)c2n1)OCc1ccc(O[C@@H]2O[C@H](C(=O)O)[C@@H](O)[C@H](O)[C@H]2O)c([N+](=O)[O-])c1
The series is described as §3. To be noted: Bos taurus.

Substrate in series [7]: O=C(Nc1nc(OCc2ccccc2)c2[nH]cnc2n1)OCc1ccc(O[C@@H]2OC(C(=O)O)[C@@H](O)C(O)[C@@H]2O)c([N+](=O)[O-])c1
Nature of the series: (§4) KM value using bovine liver beta-glucuronidase obtained at 370 C in MOPS buffer of pH 7.0. To be noted: Bos taurus.

Substrate in series [8]: O=C(Nc1nc(OCc2ccccc2)c2ncn([C@H]3C[C@H](O)[C@@H](CO)O3)c2n1)OCc1ccc(O[C@@H]2O[C@H](C(=O)O)[C@@H](O)[C@H](O)[C@H]2O)c([N+](=O)[O-])c1
The series is described as §4. The note with it: Bos taurus.

B1: Beta-glucuronidase (Escherichia coli (strain K12)), P05804 (protein)
chain: MLRPVETPTREIKKLDGLWAFSLDRENCGIDQRWWESALQESRAIAVPGSFNDQFADADIRNYAGNVWYQREVFIPKGWAGQRIVLRFDAVTHYGKVWVNNQEVMEHQGGYTPFEADVTPYVIAGKSVRITVCVNNELNWQTIPPGMVITDENGKKKQSYFHDFFNYAGIHRSVMLYTTPNTWVDDITVVTHVAQDCNHASVDWQVVANGDVSVELRDADQQVVATGQGTSGTLQVVNPHLWQPGEGYLYELCVTAKSQTECDIYPLRVGIRSVAVKGEQFLINHKPFYFTGFGRHEDADLRGKGFDNVLMVHDHALMDWIGANSYRTSHYPYAEEMLDWADEHGIVVIDETAAVGFNLSLGIGFEAGNKPKELYSEEAVNGETQQAHLQAIKELIARDKNHPSVVMWSIANEPDTRPQGAREYFAPLAEATRKLDPTRPITCVNVMFCDAHTDTISDLFDVLCLNRYYGWYVQSGDLETAEKVLEKELLAWQEKLHQPIIITEYGVDTLAGLHSMYTDMWSEEYQCAWLDMYHRVFDRVSAVVGEQVWNFADFATSQGILRVGGNKKGIFTRDRKPKSAAFLLQKRWTGMNFGEKPQQGGKQ
For the protein B1, the Vmax was 7.8 µmol/mg/min in series [1] and 11 µmol/mg/min in series [2]. The Km in series [3] was 17 µM; in series [4], 41 µM.

B2: Beta-glucuronidase (Bos taurus), A3KMY8 (protein)
chain: MLRGSAGAWAVLGPLLWGCGLSLLQGGMLYPRESRSRERKELDGLWSFRADFSDNRRQGFEQQWYRAPLRESGPTLDMPVPSSFNDVGQDGQLRSFVGWVWYEREITLPQRWTEDLGTRVVLRIGSAHYYAIVWVNGVHVLEHEGGHLPFEADISKLVQSGPLSSCRITIAINNTLSPHTLPPGTILYKTDPSMYPKGYFVQNTKFDFFNYAGLHRSVLLYTTPTTYIDDITVTTDMDQDIGLVNYQIIVQGSDHFQVDVSLLDEEGKVMAKGAGAEGQLQVPSAHLWWPYLMHEHPAYLYSLEVKLTAQTAVGPVSDFYTLPVGIRTVAVTKSQFLINGKPFYFRGVNKHEDADIRGKGFDWPLLVKDFNLLRWLGANAFRTSHYPYSEEVLQLCDRYGIVVIDESPGVGIVLVESFSNVSLQHHLEVMEEMIRRDKNHPAVVMWSLANEPASFLKPAGYYFKTLIAHTKALDPSRPVTFVTNTNYEADLGAPYVDIICVNSYYSWYHDYGHMEVIQLQLATQFENWYKAYQKPMIQSEYGADAIEGFHEDPPLMFSEEYQKGLLQQYHVVLDQKRKEYVVGELIWNFADFMTNQSPVRMIGNRKGIFTRQRQPKSAAFLLRERYWKLANETRYQRSAVTSQCVGSGLFTV
For the protein B2, the Vmax in series [5] turned out to be 0.27 µmol/mg/min; in series [6], 0.39 µmol/mg/min. The Km in series [7] stood at 240 µM; in series [8], 360 µM.
